Patent US20220257766A1, “SSTR-TARGETED CONJUGATES AND FORMULATIONS THEREOF” (TVA (ABC), LLC, priority 2019, published 2022)

Experiments:
[1] = Buffer screening for solution stability of Conjugate 57; assay type: physicochemical; conditions: acetate buffer at pH range of 4.0 to 4.8, compared with citrate and phosphate buffers
Text: Conjugate 57 is a free flowing powder. Previusly studies have found the stability of Conjugate 57 is dependent on the pH of the solution.

[2] = Clinical studies of Conjugate 57 given IV: dose level, benefit and toxicity; assay type: in vivo, human
Protocol: (§1) In previous clincial studies, Conjugate 57 was administered via IV on an every 3 week cycle ([…]). The dose of Conjugate 57 may be 1.0 mg, 2.0 mg, 4.0 mg, 8 mg, 12 mg, 15 mg or MTD, which has been determined to be 18 mg. […] BSA (meters squared), as used herein, can be calculated as the following: the square root of patient height in centimeters times patient weight in kilograms divided by 3600. As shown in FIG. 1A and FIG. 1B, a trend was evident between dose normalized exposure (AUC0-8 and Cmax) vs BSA for Conjugate 57. […] The majority of toxicity observed was at dose levels greater than 8.8 mg/m^2. Based on these unexpected results, that starting dose of Conjuate 57 for patients was changed from 15 mg to 8.8 mg/m^2 or less than 8.8 mg/m^2. Patients received dose levels such as 8.8 mg/m^2, 8.75 mg/m^2, 8.6 mg/m^2, 8.4 mg/m^2, 8.3 mg/m^2, 7.9 mg/m^2, 7.5 mg/m^2, and 6.7 mg/m2.
The risk of over exposure of high Cmax levels in smaller pateints (<1.6 m^2) was reduced. The risk of early discontinuation due to intolerability was reduced and the duration of theray was increased.

[3] = Pharmacokinetics of Conjugate 57 in patients; assay type: in vivo, human
Protocol: as §1

[4] = patients, dose per body surface area
[5] = human, in vivo, intravenous, in a patient

COc1cc2cc(c1Cl)N(C)C(=O)C[C@H](OC(=O)[C@H](C)N(C)C(=O)CCSSC[C@H](NC(=O)[C@@H]1CSSC[C@H](NC(=O)[C@H](N)Cc3ccccc3)C(=O)N[C@@H](Cc3ccc(O)cc3)C(=O)N[C@H](Cc3c[nH]c4ccccc34)C(=O)N[C@@H](CCCCN)C(=O)N[C@@H]([C@@H](C)O)C(=O)N1)C(N)=O)[C@]1(C)O[C@H]1[C@H](C)[C@@H]1C[C@@](O)(NC(=O)O1)[C@H](OC)/C=C/C=C(\C)C2 [Conjugate 57]
stability in buffered solution [1]: most stability | MTD ([2]; IV, every 3 week cycle, flat dose, previous clinical studies): 18 mg | effect on efficacy of changing from flat doses to doses based on body surface area ([2]; patients): no negative effect on efficacy | dose levels at which maximum benefit was observed [2, 4]: ≤ 8.8 mg/m^2 | dose levels at which the majority of toxicity was observed [2, 4]: greater than 8.8 mg/m^2 | clearance [3, 5]: 318 mL/min | half-life [3, 5]: ~1.8 h | exposure (dose normalized AUC0-8 and Cmax) vs body surface area ([3]; patients, FIG. 1A and FIG. 1B): correlateds with body surface area (BSA)
